Laboratory results taken from patent US20180230236A1.

Tests used:
[1] = target: canine IgE (canine monoclonal IgE from mouse x dog heterohybridoma cell line 2.39) (canine); test: flow cytometry; C2 cells loaded with APC-canine IgE, then supernatant of chimera-transfected HEK 293 for 60 min at room temperature; displacement of IgE from FcεRI
[2] = target: canine IgE (canine monoclonal IgE from mouse x dog heterohybridoma cell line 2.39) (canine); test: affinity estimated from titration to end signal on IgE coated ELISA microtiter plates
[3] = target: canine IgE (canine monoclonal IgE from mouse x dog heterohybridoma cell line 2.39) (canine); test: flow cytometry; displacement of APC-canine IgE from FcεRI on C2 cells by chimera supernatant

Chain of canine IgE (canine monoclonal IgE from mouse x dog heterohybridoma cell line 2.39) (canine) (P25054 whole entry): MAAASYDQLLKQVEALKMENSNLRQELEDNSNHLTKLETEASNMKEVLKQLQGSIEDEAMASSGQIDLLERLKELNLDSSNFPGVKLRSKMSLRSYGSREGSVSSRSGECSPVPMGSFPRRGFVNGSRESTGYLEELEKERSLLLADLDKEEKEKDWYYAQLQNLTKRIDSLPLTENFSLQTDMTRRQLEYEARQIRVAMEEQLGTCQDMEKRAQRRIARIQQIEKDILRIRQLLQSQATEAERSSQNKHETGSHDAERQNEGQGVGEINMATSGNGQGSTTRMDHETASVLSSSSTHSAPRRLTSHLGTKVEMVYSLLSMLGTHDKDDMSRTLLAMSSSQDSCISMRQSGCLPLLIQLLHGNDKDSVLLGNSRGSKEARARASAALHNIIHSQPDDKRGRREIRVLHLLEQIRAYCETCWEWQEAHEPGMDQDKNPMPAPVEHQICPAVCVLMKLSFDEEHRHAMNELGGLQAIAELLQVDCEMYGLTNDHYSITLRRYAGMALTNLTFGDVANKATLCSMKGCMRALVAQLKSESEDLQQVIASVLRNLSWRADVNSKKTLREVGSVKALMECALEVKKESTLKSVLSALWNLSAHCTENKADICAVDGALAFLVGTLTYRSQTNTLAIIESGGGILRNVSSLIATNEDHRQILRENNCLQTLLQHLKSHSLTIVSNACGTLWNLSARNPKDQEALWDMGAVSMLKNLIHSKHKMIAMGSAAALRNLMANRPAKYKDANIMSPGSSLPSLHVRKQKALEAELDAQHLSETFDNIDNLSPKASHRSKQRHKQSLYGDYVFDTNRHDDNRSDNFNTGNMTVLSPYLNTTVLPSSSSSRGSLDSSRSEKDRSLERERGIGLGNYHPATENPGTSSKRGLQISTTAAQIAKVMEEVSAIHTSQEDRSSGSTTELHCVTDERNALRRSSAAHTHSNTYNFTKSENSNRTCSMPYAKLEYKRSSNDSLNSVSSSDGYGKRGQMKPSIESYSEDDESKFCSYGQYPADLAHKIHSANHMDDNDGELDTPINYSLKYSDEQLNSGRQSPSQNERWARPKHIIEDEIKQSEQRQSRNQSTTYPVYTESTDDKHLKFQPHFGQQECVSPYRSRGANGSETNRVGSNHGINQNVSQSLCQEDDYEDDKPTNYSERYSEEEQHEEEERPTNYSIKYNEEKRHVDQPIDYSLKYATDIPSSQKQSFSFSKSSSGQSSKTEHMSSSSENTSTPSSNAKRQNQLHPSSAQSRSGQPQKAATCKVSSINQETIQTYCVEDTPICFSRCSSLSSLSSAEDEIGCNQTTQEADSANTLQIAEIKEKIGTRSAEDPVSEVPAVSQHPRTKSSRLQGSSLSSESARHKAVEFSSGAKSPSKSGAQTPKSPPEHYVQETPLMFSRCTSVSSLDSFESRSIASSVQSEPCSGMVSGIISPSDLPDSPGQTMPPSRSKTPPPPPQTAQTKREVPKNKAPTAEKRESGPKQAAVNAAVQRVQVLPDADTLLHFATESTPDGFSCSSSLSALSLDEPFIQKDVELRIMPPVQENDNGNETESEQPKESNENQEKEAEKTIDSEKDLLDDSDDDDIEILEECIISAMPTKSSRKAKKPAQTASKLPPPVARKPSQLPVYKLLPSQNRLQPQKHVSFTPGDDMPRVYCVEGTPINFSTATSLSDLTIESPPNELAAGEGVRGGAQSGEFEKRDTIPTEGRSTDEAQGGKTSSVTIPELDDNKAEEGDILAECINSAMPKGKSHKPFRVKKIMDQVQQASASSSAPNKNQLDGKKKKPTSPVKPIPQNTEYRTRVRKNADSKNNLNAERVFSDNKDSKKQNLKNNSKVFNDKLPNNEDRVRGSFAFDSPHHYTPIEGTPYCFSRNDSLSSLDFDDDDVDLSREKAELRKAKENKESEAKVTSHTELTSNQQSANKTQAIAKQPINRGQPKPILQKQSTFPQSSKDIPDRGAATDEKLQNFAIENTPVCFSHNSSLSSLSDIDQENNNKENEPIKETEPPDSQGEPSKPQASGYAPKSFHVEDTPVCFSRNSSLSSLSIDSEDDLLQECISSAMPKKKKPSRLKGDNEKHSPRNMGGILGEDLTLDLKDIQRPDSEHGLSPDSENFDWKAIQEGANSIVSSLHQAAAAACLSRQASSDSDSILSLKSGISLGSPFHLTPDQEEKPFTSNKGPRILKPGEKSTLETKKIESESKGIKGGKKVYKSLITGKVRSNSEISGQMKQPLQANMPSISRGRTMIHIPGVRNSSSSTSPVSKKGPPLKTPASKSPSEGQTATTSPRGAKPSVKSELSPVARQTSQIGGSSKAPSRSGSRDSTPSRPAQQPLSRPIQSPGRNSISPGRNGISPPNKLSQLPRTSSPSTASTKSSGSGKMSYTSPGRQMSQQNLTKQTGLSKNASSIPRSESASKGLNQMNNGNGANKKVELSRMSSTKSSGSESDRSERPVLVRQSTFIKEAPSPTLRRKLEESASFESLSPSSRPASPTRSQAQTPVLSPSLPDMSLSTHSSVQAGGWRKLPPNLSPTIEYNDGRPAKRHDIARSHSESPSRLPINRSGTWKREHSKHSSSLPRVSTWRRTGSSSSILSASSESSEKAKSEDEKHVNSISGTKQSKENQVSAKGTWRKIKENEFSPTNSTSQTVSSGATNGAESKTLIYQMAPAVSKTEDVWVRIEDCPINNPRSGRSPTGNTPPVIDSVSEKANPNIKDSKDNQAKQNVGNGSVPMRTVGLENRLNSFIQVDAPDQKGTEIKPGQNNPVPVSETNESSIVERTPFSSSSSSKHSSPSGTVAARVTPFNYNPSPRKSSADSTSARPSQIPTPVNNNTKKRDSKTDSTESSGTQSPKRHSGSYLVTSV

B1: chimera of canine FcεRI alpha chain x scFv-5.91 (protein)
chain: DTLKPTVSMNPPWNTILKDDSVTLTCTGNNSLEVDSAVWLHNNTTLQETTSRLDINKAQIQDSGEYRCRENRSILSDPVYLTVFTEWLILQASANVVMEGESFLIRCHSWKNLRLTKVTYYKDGIPIRYWYENFNISISNVTTKNSGNYSCSGQIQQKGYTSKVLNIIVKKEPTKQNKYSGLQGGGGSGGGGSGGGGSEVQLQQSGPELVKPGASMKISCKASGYSITGYTIHWVKQSHGKNLEWIGLINPYTGGITYNQNFKGKATLTVDKSSSTAYMELLSLTSEDSAVYYCSRGPYGNFYAMDYWGQGTSVTVSSGGGGSGGGGSGGGGSDIQMTQSPASLSASVGETVTITCRASGNIHNYLAWYQQKQGKSPQLLVYNAKTLADSVPSRFSGSGSGTQFSLKINSLQPEDFGSYYCQHFWSTPYTFGGGTKLEIKRA
- % cells with label (after chimera supernatant) [1]: 4.11%
- affinity [2]: 100 pM
- loss of mast cells carrying IgE [3]: > 50%
